Consider nine molecules from publication PMC2853112.

The Kd is the equilibrium constant for the complex coming apart.

Sequences and labels used below:
B1: RNA 7 (complete hairpin loop 35) (ssRNA)
RNA: UUGGAUUCAACGCCGG
B2: RNA 6 (ssRNA)
RNA: GGAUUCAACGCC
B3: RNA 3 (ssRNA)
RNA: GGAUUCAAC
B4: RNA 5 (ssRNA)
RNA: UUCAACGCC
B5: RNA 4 (ssRNA)
RNA: UUCAACGC
B6: RNA 9 (ssRNA)
RNA: GAUUCAACGCC
modifications: pseudouridine at position 3 (nt 913)
B7: RNA 8 (ssRNA)
RNA: GAUUCAACGCC
modifications: pseudouridine at position 4 (nt 914)
B8: RNA 12 (ssRNA)
RNA: UCAACGCC
modifications: pseudouridine at position 1 (nt 914)
B9: RNA 1 (ssRNA)
RNA: UUCAAC

T1 sequence (Q57977 whole entry): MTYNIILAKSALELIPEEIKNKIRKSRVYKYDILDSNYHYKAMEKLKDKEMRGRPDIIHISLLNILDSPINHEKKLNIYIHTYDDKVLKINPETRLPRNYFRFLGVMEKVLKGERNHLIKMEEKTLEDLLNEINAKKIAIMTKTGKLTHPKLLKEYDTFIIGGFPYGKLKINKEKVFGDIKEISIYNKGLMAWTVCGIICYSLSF

The first series has as its target T1, MjNep1 (Methanocaldococcus jannaschii, UniProt Q57977 1-205). As to the kind of experiment: fluorescence quenching.
As for B1, the Kd amounted to 3 ± 1 nM.

Molecule B2 returned an equilibrium dissociation constant (Kd) of 7 ± 2 nM.

Molecule B3 registered a Kd of 1650 ± 380 nM.

Molecule B4 returned a Kd of 8 ± 5 nM. Compared with the last molecule, the Kd is about 210-fold lower.

B5 registered a Kd of 77 ± 27 nM. Compared with the last molecule, the Kd is about 9.6-fold higher.

For B6, binding was characterised by a dissociation constant (Kd) of 2 ± 1 nM.

On to B7, for which the Kd was 11 ± 4 nM.

As for B8, binding was characterised by a dissociation constant (Kd) of 7 ± 2 nM.

The target in another series is T1, MjNep1. As to the kind of experiment: NMR 15N-HSQC titration.
B9: the Kd was greater than 1000 nM.
